Data published in paper PMC3572760 (Advances and Applications in Bioinformatics and Chemistry : …, 2013).

Experiments:
[1] = target: T1, 5-enolpyruvylshikimate-3-phosphate synthase (EPSPS) (Escherichia coli, UniProt P0A6D3); format: biochemical
T1 sequence (P0A6D3 1-427): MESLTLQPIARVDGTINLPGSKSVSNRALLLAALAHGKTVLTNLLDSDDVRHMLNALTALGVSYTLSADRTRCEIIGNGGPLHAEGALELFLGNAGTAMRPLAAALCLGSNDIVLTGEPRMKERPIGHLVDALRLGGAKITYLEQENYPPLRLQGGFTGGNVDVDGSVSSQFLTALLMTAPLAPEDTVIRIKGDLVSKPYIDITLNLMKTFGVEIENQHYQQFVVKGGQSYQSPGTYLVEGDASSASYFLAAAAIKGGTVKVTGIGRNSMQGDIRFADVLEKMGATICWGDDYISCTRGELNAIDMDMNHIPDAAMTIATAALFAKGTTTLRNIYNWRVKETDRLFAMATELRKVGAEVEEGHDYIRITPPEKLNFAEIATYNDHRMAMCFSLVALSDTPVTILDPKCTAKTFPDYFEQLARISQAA

[2] = target: 5-enolpyruvylshikimate-3-phosphate synthase (EPSPS) (Mycobacterium tuberculosis, UniProt P9WPY5); assay: biochemical
C=C(OP(=O)(O)O)C(=O)O = assay: purified protein
[3] = system: O=C(O)C1=C[C@@H](OP(=O)(O)O)[C@@H](O)[C@H](O)C1; assay: purified protein
steady-state kinetics = substrate: C=C(OP(=O)(O)O)C(=O)O; assay: steady-state kinetics; format: biochemical, Escherichia coli; settings: PEP/glyphosate-binding pocket

Chain of 5-enolpyruvylshikimate-3-phosphate synthase (EPSPS) (Mycobacterium tuberculosis, UniProt P9WPY5) (P9WPY5 whole entry): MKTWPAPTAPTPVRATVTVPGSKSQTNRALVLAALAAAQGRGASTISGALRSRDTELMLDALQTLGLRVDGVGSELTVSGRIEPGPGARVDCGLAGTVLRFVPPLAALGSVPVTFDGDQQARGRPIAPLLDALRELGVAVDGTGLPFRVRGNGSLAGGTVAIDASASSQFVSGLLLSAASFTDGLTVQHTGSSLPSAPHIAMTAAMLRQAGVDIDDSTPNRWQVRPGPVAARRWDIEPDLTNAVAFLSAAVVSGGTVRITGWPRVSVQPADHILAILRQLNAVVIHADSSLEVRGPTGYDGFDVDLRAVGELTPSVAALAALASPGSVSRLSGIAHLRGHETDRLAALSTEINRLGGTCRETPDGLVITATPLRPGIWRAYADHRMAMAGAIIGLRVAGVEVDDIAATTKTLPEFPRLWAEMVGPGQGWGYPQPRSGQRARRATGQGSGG

O=C(O)CNCP(=O)(O)O [glyphosate, N-phosphonomethyl-glycine] showed an IC50 [1] of 3 µM and an IC50 [2] of 260 µM.

“5-enolpyruvylshikimate-3-phosphate synthase (EPSPS) (Mycobacterium tuberculosis H37Rv)” gave a Km (C=C(OP(=O)(O)O)C(=O)O) of 104 µM and a Km [3] of 16 µM.

B1: 5-enolpyruvylshikimate-3-phosphate synthase (EPSPS) (Escherichia coli K-12) (protein)
chain: T1 sequence (P0A6D3 1-427)
B1 showed a Km (steady-state kinetics) of 52 µM.
